According to the supplement of paper PMC9112550, “Optimization of the antimicrobial peptide Bac7 by deep mutational scanning” (BMC Biology, 2022):

Test system: Escherichia coli TOP10
Experiment: shrunken log2 fold change of peptide-encoding DNA abundance (4.5 h post-induction vs induction); higher = less antimicrobial activity (less host growth inhibition)
Settings: time post-induction: 4.5 h; library: site-saturation at positions 5, 18, 19, 20
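Also: peptides expressed intracellularly from a pBAD plasmid library in pooled LB shake-flask culture, induced with 0.3% L-arabinose, DNA abundance read by NGS, three biological replicates, DESeq2 with apeglm shrinkage.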

| Sequence | shrunken log2 fold change |
| --- | --- |
| RRIRGRPPRLPRPRPRPLLKPRP | 1.39 |
| RRIRGRPPRLPRPRPRPLNDPRP | 0.388 |
| RRIRGRPPRLPRPRPRPLPAPRP | 1.33 |
| RRIRGRPPRLPRPRPRPLPTPRP | 1.14 |
| RRIRGRPPRLPRPRPRPLQSPRP | 0.746 |
| RRIRGRPPRLPRPRPRPLQWPRP | 0.534 |
| RRIRGRPPRLPRPRPRPLTKPRP | 0.664 |
| RRIRGRPPRLPRPRPRPLTMPRP | 0.763 |
| RRIRGRPPRLPRPRPRPLVEPRP | 1.2 |
| RRIRGRPPRLPRPRPRPLVPPRP | 0.417 |
| RRIRGRPPRLPRPRPRPLYDPRP | 0.135 |
| RRIRGRPPRLPRPRPRPLYHPRP | 3.13 |
| RRIRGRPPRLPRPRPRPLYSPRP | 0.225 |
| RRIRGRPPRLPRPRPRPLYYPRP | -0.13 |
| RRIRGRPPRLPRPRPRPMACPRP | -0.119 |
| RRIRGRPPRLPRPRPRPMAMPRP | 0.138 |
| RRIRGRPPRLPRPRPRPMDQPRP | 0.489 |
| RRIRGRPPRLPRPRPRPMFVPRP | 0.39 |
| RRIRGRPPRLPRPRPRPMFYPRP | 1.07 |
| RRIRGRPPRLPRPRPRPMHFPRP | -0.0109 |
| RRIRGRPPRLPRPRPRPMHQPRP | 0.696 |
| RRIRGRPPRLPRPRPRPMHVPRP | 0.0539 |
| RRIRGRPPRLPRPRPRPMIPPRP | -0.219 |
| RRIRGRPPRLPRPRPRPMKHPRP | 0.0417 |
| RRIRGRPPRLPRPRPRPMKQPRP | 0.316 |

| Sequence | shrunken log2 fold change |
| --- | --- |
| RRIRGRPPRLPRPRPRPMLAPRP | 1.9 |
| RRIRGRPPRLPRPRPRPMLQPRP | 0.324 |
| RRIRGRPPRLPRPRPRPMLTPRP | 1.04 |
| RRIRGRPPRLPRPRPRPMLWPRP | 0.737 |
| RRIRGRPPRLPRPRPRPMMDPRP | 0.66 |
| RRIRGRPPRLPRPRPRPMMEPRP | 0.372 |
| RRIRGRPPRLPRPRPRPMPGPRP | 0.479 |
| RRIRGRPPRLPRPRPRPMQEPRP | 0.161 |
| RRIRGRPPRLPRPRPRPMQRPRP | 1.29 |
| RRIRGRPPRLPRPRPRPMQTPRP | 0.0492 |
| RRIRGRPPRLPRPRPRPMQYPRP | -0.21 |
| RRIRGRPPRLPRPRPRPMRQPRP | 0.453 |
| RRIRGRPPRLPRPRPRPMSAPRP | 0.702 |
| RRIRGRPPRLPRPRPRPMTGPRP | 0.427 |
| RRIRGRPPRLPRPRPRPMTIPRP | 0.0989 |
| RRIRGRPPRLPRPRPRPMTSPRP | 0.445 |
| RRIRGRPPRLPRPRPRPMVYPRP | 0.438 |
| RRIRGRPPRLPRPRPRPMYQPRP | -0.0304 |
| RRIRGRPPRLPRPRPRPNERPRP | 0.108 |
| RRIRGRPPRLPRPRPRPNETPRP | 0.0274 |
| RRIRGRPPRLPRPRPRPNGCPRP | 0.12 |
| RRIRGRPPRLPRPRPRPNKGPRP | -0.0466 |
| RRIRGRPPRLPRPRPRPNKMPRP | 0.162 |
| RRIRGRPPRLPRPRPRPNLRPRP | 0.283 |
| RRIRGRPPRLPRPRPRPNLSPRP | 0.477 |

| Sequence | shrunken log2 fold change |
| --- | --- |
| RRIRGRPPRLPRPRPRPNMMPRP | 0.0511 |
| RRIRGRPPRLPRPRPRPNMQPRP | 0.492 |
| RRIRGRPPRLPRPRPRPNNDPRP | 0.247 |
| RRIRGRPPRLPRPRPRPNNIPRP | -0.163 |
| RRIRGRPPRLPRPRPRPNPIPRP | 0.0839 |
| RRIRGRPPRLPRPRPRPNPMPRP | 0.17 |
| RRIRGRPPRLPRPRPRPNQSPRP | 0.17 |
| RRIRGRPPRLPRPRPRPNRMPRP | -0.00965 |
| RRIRGRPPRLPRPRPRPNRNPRP | 0.00949 |
| RRIRGRPPRLPRPRPRPNSIPRP | 0.00326 |
| RRIRGRPPRLPRPRPRPNTQPRP | 0.224 |
| RRIRGRPPRLPRPRPRPNTSPRP | 0.172 |
| RRIRGRPPRLPRPRPRPNVHPRP | 0.167 |
| RRIRGRPPRLPRPRPRPNVLPRP | -0.0548 |
| RRIRGRPPRLPRPRPRPNVYPRP | 0.205 |
| RRIRGRPPRLPRPRPRPNWGPRP | 0.44 |
| RRIRGRPPRLPRPRPRPNWNPRP | -0.00809 |
| RRIRGRPPRLPRPRPRPPAWPRP | 1.34 |
| RRIRGRPPRLPRPRPRPPCNPRP | 0.489 |
| RRIRGRPPRLPRPRPRPPCTPRP | 0.76 |
| RRIRGRPPRLPRPRPRPPCWPRP | 1.09 |
| RRIRGRPPRLPRPRPRPPECPRP | 0.483 |
| RRIRGRPPRLPRPRPRPPERPRP | 1.02 |
| RRIRGRPPRLPRPRPRPPFHPRP | 0.24 |
| RRIRGRPPRLPRPRPRPPGNPRP | 0.432 |
